In PMC8927045, “MAP3K1 Variant Causes Hyperactivation of Wnt4/β-Catenin/FOXL2 Signaling Contributing to 46,XY Disorders/Differences of Sex Development” (Frontiers in Genetics, 2022):

How the values were obtained:
[1] = target: T1, RHOA-LgBiT-N (RhoA fused to LgBiT) (human (from the RefSeq entry NM_001664; …, UniProt P61586 1-193); experiment: split reporter (BiFC, NanoBiT); NanoBiT in HEK293T cells co-transfected with SmBiT and LgBiT fusion plasmids (500 ng DNA in all, 24-well plate); 24 h after transfection medium replaced by OPTI-MEM, substrate added, signal read for 30 min; negative control: SmBiT-MAP3K1 plasmid alone; conditions: partners not purified
T1 construct: RhoA, RHOA gene (NM_001664); On which end of RhoA the LgBiT stands is not clear from the two names used; also called LgBit-RhoA-N; source: HEK293T, transfected, in cells

RHOA-3×Flag = target: T2, RHOA-3×Flag (human (from the RefSeq entry NM_001664; …, UniProt P61586 1-193); experiment: co-IP; HEK293T cells co-transfected with MAP3K1-3×HA and RHOA-3×Flag; 48 h after transfection lysed in modified RIPA buffer; anti-Flag or anti-HA magnetic beads overnight at 4°C; blot with anti-HA or anti-FLAG; ratio of Co-IP to IP band intensity; conditions: partners not purified
T2 construct: RhoA, RHOA gene (NM_001664) cloned into p3×Flag-CMV-14; also called RhoA-Flag; source: HEK293T, transfected, in lysate
T2 sequence (P61586 whole entry): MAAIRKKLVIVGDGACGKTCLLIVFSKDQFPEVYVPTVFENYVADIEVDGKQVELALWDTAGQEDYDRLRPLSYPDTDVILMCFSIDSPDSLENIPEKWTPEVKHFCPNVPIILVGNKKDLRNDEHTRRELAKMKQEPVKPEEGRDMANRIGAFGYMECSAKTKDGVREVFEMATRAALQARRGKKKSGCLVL

T1 sequence (P61586 whole entry, the tested form may be a part): as the sequence (P61586 whole entry) above

| fold of the wild type's NanoBiT signal [1] | fold of the wild type's ratio of Co-IP to IP signal (RHOA-3×Flag) | Binder |
| --- | --- | --- |
| 3.19 ± 0.18 fold of wild type | – | MAP3K1^R186G-SmBiT-C (R186G variant of MAP3K1 fused to SmBiT) (enzyme, human, UniProt Q13233 1-1512, looked up, Same construct as m1 with the patient variant; The end of the SmBiT is not clear; also called MAP3K1-Mut; p.R186G variant; source: HEK293T, transfected, in cells) MAAAAGNRASSSGFPGARATSPEAGGGGGALKASSAPAAAAGLLREAGSGGRERADWRRRQLRKVRSVELDQLPEQPLFLAASPPASSTSPSPEPADAAGSGTGFQPVAVPPPHGAASRGGAHLTESVAAPDSGASSPAAAEPGEKRAPAAEPSPAAAPAGREMENKETLKGLHKMDDRPEERMIGEKLKATCMPAWKHEWLERRNRRGPVVVKPIPVKGDGSEMNHLAAESPGEVQASAASPASKGRRSPSPGNSPSGRTVKSESPGVRRKRVSPVPFQSGRITPPRRAPSPDGFSPYSPEETNRRVNKVMRARLYLLQQIGPNSFLIGGDSPDNKYRVFIGPQNCSCARGTFCIHLLFVMLRVFQLEPSDPMLWRKTLKNFEVESLFQKYHSRRSSRIKAPSRNTIQKFVSRMSNSHTLSSSSTSTSSSENSIKDEEEQMCPICLLGMLDEESLTVCEDGCRNKLHHHCMSIWAEECRRNREPLICPLCRSKWRSHDFYSHELSSPVDSPSSLRAAQQQTVQQQPLAGSRRNQESNFNLTHYGTQQIPPAYKDLAEPWIQVFGMELVGCLFSRNWNVREMALRRLSHDVSGALLLANGESTGNSGGSSGSSPSGGATSGSSQTSISGDVVEACCSVLSMVCADPVYKVYVAALKTLRAMLVYTPCHSLAERIKLQRLLQPVVDTILVKCADANSRTSQLSISTLLELCKGQAGELAVGREILKAGSIGIGGVDYVLNCILGNQTESNNWQELLGRLCLIDRLLLEFPAEFYPHIVSTDVSQAEPVEIRYKKLLSLLTFALQSIDNSHSMVGKLSRRIYLSSARMVTTVPHVFSKLLEMLSVSSSTHFTRMRRRLMAIADEVEIAEAIQLGVEDTLDGQQDSFLQASVPNNYLETTENSSPECTVHLEKTGKGLCATKLSASSEDISERLASISVGPSSSTTTTTTTTEQPKPMVQTKGRPHSQCLNSSPLSHHSQLMFPALSTPSSSTPSVPAGTATDVSKHRLQGFIPCRIPSASPQTQRKFSLQFHRNCPENKDSDKLSPVFTQSRPLPSSNIHRPKPSRPTPGNTSKQGDPSKNSMTLDLNSSSKCDDSFGCSSNSSNAVIPSDETVFTPVEEKCRLDVNTELNSSIEDLLEASMPSSDTTVTFKSEVAVLSPEKAENDDTYKDDVNHNQKCKEKMEAEEEEALAIAMAMSASQDALPIVPQLQVENGEDIIIIQQDTPETLPGHTKAKQPYREDTEWLKGQQIGLGAFSSCYQAQDVGTGTLMAVKQVTYVRNTSSEQEEVVEALREEIRMMSHLNHPNIIRMLGATCEKSNYNLFIEWMAGGSVAHLLSKYGAFKESVVINYTEQLLRGLSYLHENQIIHRDVKGANLLIDSTGQRLRIADFGAAARLASKGTGAGEFQGQLLGTIAFMAPEVLRGQQYGRSCDVWSVGCAIIEMACAKPPWNAEKHSNHLALIFKIASATTAPSIPSHLSPGLRDVALRCLELQPQDRPPSRELLKHPVFRTTW |
| – | 2.57 times wild type | MAP3K1^R186G-3×HA (enzyme, human, UniProt Q13233 1-1512, looked up, human MAP3K1, full-length cDNA NM_005921.2 with the patients' variant c.556A>G, cloned into pcDNA3.1(+)-3×HA; Same construct as m7 with the patient variant; also called R186G variant; source: HEK293T, transfected, in lysate) MAAAAGNRASSSGFPGARATSPEAGGGGGALKASSAPAAAAGLLREAGSGGRERADWRRRQLRKVRSVELDQLPEQPLFLAASPPASSTSPSPEPADAAGSGTGFQPVAVPPPHGAASRGGAHLTESVAAPDSGASSPAAAEPGEKRAPAAEPSPAAAPAGREMENKETLKGLHKMDDRPEERMIGEKLKATCMPAWKHEWLERRNRRGPVVVKPIPVKGDGSEMNHLAAESPGEVQASAASPASKGRRSPSPGNSPSGRTVKSESPGVRRKRVSPVPFQSGRITPPRRAPSPDGFSPYSPEETNRRVNKVMRARLYLLQQIGPNSFLIGGDSPDNKYRVFIGPQNCSCARGTFCIHLLFVMLRVFQLEPSDPMLWRKTLKNFEVESLFQKYHSRRSSRIKAPSRNTIQKFVSRMSNSHTLSSSSTSTSSSENSIKDEEEQMCPICLLGMLDEESLTVCEDGCRNKLHHHCMSIWAEECRRNREPLICPLCRSKWRSHDFYSHELSSPVDSPSSLRAAQQQTVQQQPLAGSRRNQESNFNLTHYGTQQIPPAYKDLAEPWIQVFGMELVGCLFSRNWNVREMALRRLSHDVSGALLLANGESTGNSGGSSGSSPSGGATSGSSQTSISGDVVEACCSVLSMVCADPVYKVYVAALKTLRAMLVYTPCHSLAERIKLQRLLQPVVDTILVKCADANSRTSQLSISTLLELCKGQAGELAVGREILKAGSIGIGGVDYVLNCILGNQTESNNWQELLGRLCLIDRLLLEFPAEFYPHIVSTDVSQAEPVEIRYKKLLSLLTFALQSIDNSHSMVGKLSRRIYLSSARMVTTVPHVFSKLLEMLSVSSSTHFTRMRRRLMAIADEVEIAEAIQLGVEDTLDGQQDSFLQASVPNNYLETTENSSPECTVHLEKTGKGLCATKLSASSEDISERLASISVGPSSSTTTTTTTTEQPKPMVQTKGRPHSQCLNSSPLSHHSQLMFPALSTPSSSTPSVPAGTATDVSKHRLQGFIPCRIPSASPQTQRKFSLQFHRNCPENKDSDKLSPVFTQSRPLPSSNIHRPKPSRPTPGNTSKQGDPSKNSMTLDLNSSSKCDDSFGCSSNSSNAVIPSDETVFTPVEEKCRLDVNTELNSSIEDLLEASMPSSDTTVTFKSEVAVLSPEKAENDDTYKDDVNHNQKCKEKMEAEEEEALAIAMAMSASQDALPIVPQLQVENGEDIIIIQQDTPETLPGHTKAKQPYREDTEWLKGQQIGLGAFSSCYQAQDVGTGTLMAVKQVTYVRNTSSEQEEVVEALREEIRMMSHLNHPNIIRMLGATCEKSNYNLFIEWMAGGSVAHLLSKYGAFKESVVINYTEQLLRGLSYLHENQIIHRDVKGANLLIDSTGQRLRIADFGAAARLASKGTGAGEFQGQLLGTIAFMAPEVLRGQQYGRSCDVWSVGCAIIEMACAKPPWNAEKHSNHLALIFKIASATTAPSIPSHLSPGLRDVALRCLELQPQDRPPSRELLKHPVFRTTW |
